# B1: yCD: yeast cytosine deaminase (yCD) (SEQ ID NO: 1), recombinant protein without target molecule (protein)
# chain: MVVTGGMASKWDQKGMDIAYEEAALGYKEGGVPIGGCLINNKDGSVLGRGHNMRFQKGSATLHGEISTLENCGRLEGKVYKDTTLYTTLSPCDMCTGAIIMYGIPRCVVGENVNFKSKGEKYLQTRGHEVVVVDDERCKKIMKQFIDERPQDWFEDIGELEHHHHHH
# modifications: yCD
# What was measured:
# [1] = Enzyme activity and kinetic analysis of yCD series recombinant proteins (5-FC converted into 5-FU); type: biochemical; conditions: 50 nM protein
# Experimental: FIGS. 2A-2B show the enzyme activities of RGD4C-yCD, yCD, RGD4C-yCD/UPRT and yCD/UPRT proteins to convert 5-FC to 5-FU. 50 nM of RGD4C-yCD, yCD, RGD4C-yCD/UPRT or yCD/UPRT protein reacted with increasing concentrations of 5-FC in phosphate buffered saline solutions. […] The measured data was used to plot the enzyme kinetic curve that takes the substrate concentration [S] as the x-axis and takes the initial reaction rate V0 as the y-axis,
# The enzyme activity of 5-FC converted into 5-FU by RGD4C-yCD, yCD, RGD4C-yCD/UPRT and yCD/UPRT is performed. The recombinant protein concentration (50 nM) added with 5-FC at different concentrations. The 5-FC consumption and the generated amount of 5-FU is calculated. The measured data is taken as the x-axis by the substrate concentration [S]; the initial reaction rate V0 is the kinetic curve by making a diagramthe with y-axis (see FIG. 2A and FIG. 2B); the non-linear regression is made by the prism software according to the Michaelis-Menten equation; calculate the enzyme kinetic parameter Km and Vmax. […] It is speculated that the yCD function in each fusion protein is similar, but yUPRT may affect the effects of yCD and 5-FC.
# integrin αvβ3 receptor = integrin αvβ3 receptor (Homo sapiens, UniProt P05106+P06756); experiment: ELISA binding assay of yCD series recombinant protein to integrin αvβ3 receptor; conditions: ELISA
# Chain of integrin αvβ3 receptor (P06756 31-889 limits assumed): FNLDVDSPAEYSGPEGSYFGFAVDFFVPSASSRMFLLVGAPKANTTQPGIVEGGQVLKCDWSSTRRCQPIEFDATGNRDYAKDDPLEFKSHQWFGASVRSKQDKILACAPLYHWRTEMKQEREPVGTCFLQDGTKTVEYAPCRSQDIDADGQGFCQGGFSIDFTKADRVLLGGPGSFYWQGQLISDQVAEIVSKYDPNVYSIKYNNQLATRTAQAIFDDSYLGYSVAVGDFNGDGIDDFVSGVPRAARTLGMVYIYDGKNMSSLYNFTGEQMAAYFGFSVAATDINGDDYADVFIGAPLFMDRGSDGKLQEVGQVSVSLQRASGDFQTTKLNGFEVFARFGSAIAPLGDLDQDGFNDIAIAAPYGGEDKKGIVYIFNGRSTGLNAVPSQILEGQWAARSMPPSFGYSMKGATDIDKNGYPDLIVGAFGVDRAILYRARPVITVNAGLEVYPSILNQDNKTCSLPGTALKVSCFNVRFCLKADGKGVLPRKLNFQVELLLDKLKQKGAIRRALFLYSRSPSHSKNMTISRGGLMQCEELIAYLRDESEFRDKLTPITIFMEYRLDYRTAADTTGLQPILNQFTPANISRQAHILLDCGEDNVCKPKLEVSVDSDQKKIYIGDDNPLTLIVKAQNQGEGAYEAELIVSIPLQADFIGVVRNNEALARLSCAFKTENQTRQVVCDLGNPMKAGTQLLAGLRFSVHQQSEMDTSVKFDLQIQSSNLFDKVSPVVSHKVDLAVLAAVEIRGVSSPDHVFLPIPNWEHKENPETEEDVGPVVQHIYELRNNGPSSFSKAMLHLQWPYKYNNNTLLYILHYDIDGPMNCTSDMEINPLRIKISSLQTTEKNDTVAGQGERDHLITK
# Chain of integrin αvβ3 receptor (P06756 891-1048 partner limits assumed): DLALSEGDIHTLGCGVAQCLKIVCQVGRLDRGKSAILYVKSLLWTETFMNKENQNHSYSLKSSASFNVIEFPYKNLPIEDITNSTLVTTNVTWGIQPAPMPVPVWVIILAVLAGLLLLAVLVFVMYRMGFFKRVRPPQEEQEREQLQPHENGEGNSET
# Chain of integrin αvβ3 receptor (P05106 27-788): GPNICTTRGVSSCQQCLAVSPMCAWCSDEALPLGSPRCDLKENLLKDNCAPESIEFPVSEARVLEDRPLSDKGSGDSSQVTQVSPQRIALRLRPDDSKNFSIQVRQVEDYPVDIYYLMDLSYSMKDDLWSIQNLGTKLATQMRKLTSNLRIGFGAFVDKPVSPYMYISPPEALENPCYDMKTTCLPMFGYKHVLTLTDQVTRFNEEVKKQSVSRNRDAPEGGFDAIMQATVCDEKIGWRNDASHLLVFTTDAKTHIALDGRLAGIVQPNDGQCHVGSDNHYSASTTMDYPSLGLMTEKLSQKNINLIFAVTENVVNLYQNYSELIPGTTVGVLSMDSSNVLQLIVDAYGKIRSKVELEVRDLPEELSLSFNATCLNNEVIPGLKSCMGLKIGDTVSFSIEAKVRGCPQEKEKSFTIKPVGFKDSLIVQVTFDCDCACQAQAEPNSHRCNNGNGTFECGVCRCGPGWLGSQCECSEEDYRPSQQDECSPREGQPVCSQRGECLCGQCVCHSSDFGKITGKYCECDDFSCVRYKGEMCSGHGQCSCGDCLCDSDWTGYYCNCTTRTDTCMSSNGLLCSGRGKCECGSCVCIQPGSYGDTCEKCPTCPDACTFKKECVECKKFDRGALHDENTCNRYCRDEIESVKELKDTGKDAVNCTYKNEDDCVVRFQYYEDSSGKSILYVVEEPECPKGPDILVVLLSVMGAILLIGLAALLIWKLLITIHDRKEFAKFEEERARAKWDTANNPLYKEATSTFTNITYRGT
# Experimental: FIGS. 3A-3B show the binding affinity and specificity of RGD4C-yCD, yCD, RGD4C-yCD/UPRT and yCD/UPRT proteins to integrin αvβ3. The binding affinities of RGD4C-yCD, yCD, RGD4C-yCD/UPRT and yCD/UPRT proteins to integrin αvβ3 were determined by ELISA assay using horseradish peroxidase (HRP)-tagged anti-His6 antibody (FIG. 3A). The dissociation constant Kd is obtained by prism software with curve fitting method. […] (*compared with untreated RGDfv group, P<0.05)
# The specific binding ability of RGD4C-yCD, yCD, RGD4C-yCD/UPRT and yCD/UPRT recombinant protein to integrin αvβ3 receptor is analyzed by ELISA binding assay, plotted with prism software and made with curve fitting to find the dissociation constant Kd value.
# [2] = Enzyme kinetic analysis of EcCD series fusion proteins, substrate cytosine; type: biochemical
# From the text: FIGS. 11A-11D show the activity and kinetics analysis of EcCD series fusion protein enzymes, and the EcCD series proteins are combined with 5-FC at different concentrations for reaction. Respectively calculate the 5-FU formation reaction rate shown in FIG. 11A, 5-FC consumption reaction rate shown in FIG. 10B, uracil formation reaction rate shown in FIG. 10C and cytosine consumption reaction rate shown in FIG. 10D, substitute Michaelis-Menten formula, and calculate the base mass (Kcat) and Km value catalyzed by each mol enzyme in unit time. […]
# [3] = Relative substrate selectivity of cytosine deaminase enzyme for 5-FC and cytosine (formula 1); type: biochemical; conditions: relative substrate selectivity to 5-FC
# From the text: Evaluation of the relative substrate selectivity of cytosine deaminase enzyme for 5-FC and Cytosine can be expressed by the following formula 1,
# The higher the value, the higher the selectivity of the enzyme to the 5-FC substrate.
# [4] = Enzyme stability of EcCD series fusion protein and yCD protein in FBS or transferrin; type: in vitro ADME; conditions: 37° C.; for enzyme activity: 24 hours
# Experimental: FIGS. 12A-12C show an enzyme stability analysis of EcCD series fusion protein and yCD protein.
# Previous literature reports indicate that the thermostability of E. coli cytosine deaminase (EcCD) is better than that of yCD. […] In order to simulate the environment of the protein in the cell killing test, the EcCD series fusion protein and the yCD protein are cultured in 10% FBS at 37° C. for 0, 1, 2, 4, 24 hours, and then determine the enzyme kinetics. It can be observed from the results that the yCD protein is cultured in 10% FBS for 1 hour, the enzyme activity is reduced to 80%, and when cultured for 2 and 4 hours, the enzyme activity is reduced to 50% and 20%, respectively, and the enzyme activity is lost after culturing for 24 hours, while the EcCD series fusion protein is similar to the culture in 100% FBS, which can maintain the original enzyme activity (see FIG. 12B). The literature points out that the metal ion of the enzyme catalytic center will affect the stability of the enzyme. In the yCD protein involved in the enzyme reaction, the metal ion of the enzyme catalytic center has a considerable relationship with the enzyme activity. The protein associated with transporting metal ions in serum is transferrin. It is speculated that transferrin may be related to the enzyme activity of yCD protein. Therefore, the EcCD series fusion protein and yCD protein are co-cultured respectively with transferrin at a concentration of 3 mg/ml (normal concentration 2.1-3.4 mg/mL) at 37° C. for 0, 1, 2, 4, 24 hours, then determine the enzyme kinetics (see FIG. 12C), it is known from the results that the longer the yCD protein is cultured in the transferrin, the lower the enzyme activity will be. […] This trend is similar to the culture at 10% in FBS. It is speculated that the factor of reducing the activity of yCD protein in FBS has a great relationship with transferrin. The stability of yCD protein in FBS is poor, and the stability of EcCD series fusion protein is better, so the industrial use of EcCD series fusion protein in both sexual and therapeutic applications is better than that of yCD protein, and it is also confirmed that the mutation of RGD4C peptide and D314A will not affect the enzyme stability of EcCD protein.
molecule,measurement,setting,value
B1,Km,[1]; calculated by 5-FC consumption,700 ± 100 µM
same,Vmax,[1]; calculated by 5-FC consumption,175.8 ± 4.7 µM/min
same,Km,[1]; calculated by 5-FU formation,1000 ± 100 µM
same,Vmax,[1]; calculated by 5-FU formation,164.2 ± 4.7 µM/min
same,binding to integrin αvβ3,integrin αvβ3 receptor,cannot be bound
same,Kcat,[2]; cytosine consumption,55.6 ± 8.5 s⁻¹
same,Km,[2]; cytosine consumption,4700 ± 1300 µM
same,Kcat,[2]; uracil generation,54.6 ± 1.3 s⁻¹
same,Km,[2]; uracil generation,3900 ± 200 µM
same,[Kcat/Km(5-FC)]/{[Kcat/Km(cytosine)] + [Kcat/Km(5-FC)]},[3],0.771
same,enzyme activity,[4]; 3 mg/ml transferrin,close to the loss of activity
same,enzyme activity (Kcat/Km relative to 0 hours),"[4]; 10% FBS, 1 hour",80%
same,enzyme activity (Kcat/Km relative to 0 hours),"[4]; 10% FBS, 2 hours",50%
same,enzyme activity (Kcat/Km relative to 0 hours),"[4]; 10% FBS, 4 hours",20%
same,enzyme activity,[4]; 10% FBS,lost
